Laboratory results published in PMC7356578, “Heparin Blocks the Inhibition of Tissue Kallikrein 1 by Kallistatin through Electrostatic Repulsion” (Biomolecules, 2020).

B1: Recombinant human kallistatin (rKAL), wild type (natural protein, UniProt P29622 45-427, looked up)
chain: GSPSLKIAPANADFAFRFYYLIASETPGKNIFFSPLSISAAYAMLSLGACSHSRSQILEGLGFNLTELSESDVHRGFQHLLHTLNLPGHGLETRVGSALFLSHNLKFLAKFLNDTMAVYEAKLFHTNFYDTVGTIQLINDHVKKETRGKIVDLVSELKKDVLMVLVNYIYFKALWEKPFISSRTTPKDFYVDENTTVRVPMMLQDQEHHWYLHDRYLPCSVLRMDYKGDATVFFILPNQGKMREIEEVLTPEMLMRWNNLLRKRNFYKKLELHLPKFSISGSYVLDQILPRLGFTDLFSKWADLSGITKQQKLEASKSFHKATLDVDEAGTEAAAATSFAIKFFSAQTNRHILRFNRPFLVVIFSTSTQSVLFLGKVVDPTKP
notes: kallistatin (SERPINA4), human, residues 45-427; Vector pE-SUMO3; purified on a HisTrap column, so the SUMO3 fusion probably carries a His tag that leaves with SUMO3; During storage or crystallisation part of the protein is cleaved between F387 and F388 (P2-P1) by an unknown protease; the crystal structures hold this cleaved form; also called rKAL-WT; SERPINA4; source: E. coli BL21 (DE3), purified …
B2: Recombinant human tissue kallikrein 1 (KLK1), wild type (enzyme)
chain: not shown
notes: tissue kallikrein 1 (KLK1), human, residues 25-262; Vector pE-SUMO3; also called kallikrein-related peptidase 1

Tests used:
Conditions in all cases: both partners purified
[1] = target: B2; test: kinetics of protease inhibition (discontinuous assay); pseudo-first-order; 10 nM protease with 100-500 nM kallistatin variant, PBS, 0.1% PEG 8000, 22 ± 1 °C; apparent second-order rate constant kapp from kobs; k2 = kapp × SI
[2] = target: B2; test: stoichiometry of inhibition by titration of residual protease activity; 1 µM protease with increasing kallistatin variant in PBS, 0.1% PEG 8000, 2 h, 37 °C; residual activity on 0.2 mM H-D-Val-Leu-Arg-AMC; intercept on the abscissa
[3] = target: B1; test: SDS-stable covalent serpin-protease complex on reducing SDS-PAGE; 2 µg rKAL mixed with 0.5-1 µg KLK1 (2-3 min), 5 µg KLK1-99Lm (20 min) or 0.5 µg KLK1-70Lm (2 min) at room temperature, no heparin; Coomassie stain

Binder | k2 (kapp × SI, second-order rate constant) [1] [M⁻¹ s⁻¹] | kapp (apparent second-order rate constant) [1] [M⁻¹ s⁻¹] | SI (stoichiometry of inhibition) [2] | binding result [3]
B1 | 3400 | 2400 | 1.4 | –
B2 | – | – | – | binds
rKAL-307/308D (natural protein, human, UniProt P29622 45-427, looked up, kallistatin (SERPINA4), human, residues 45-427; double mutant of K307 and R308 to Asp; also called rKAL-K307/308D; source: E. coli BL21 (DE3), purified (HisTrap FF crude, SENP2 digestion, HiTrap SP)) GSPSLKIAPANADFAFRFYYLIASETPGKNIFFSPLSISAAYAMLSLGACSHSRSQILEGLGFNLTELSESDVHRGFQHLLHTLNLPGHGLETRVGSALFLSHNLKFLAKFLNDTMAVYEAKLFHTNFYDTVGTIQLINDHVKKETRGKIVDLVSELKKDVLMVLVNYIYFKALWEKPFISSRTTPKDFYVDENTTVRVPMMLQDQEHHWYLHDRYLPCSVLRMDYKGDATVFFILPNQGKMREIEEVLTPEMLMRWNNLLRDDNFYKKLELHLPKFSISGSYVLDQILPRLGFTDLFSKWADLSGITKQQKLEASKSFHKATLDVDEAGTEAAAATSFAIKFFSAQTNRHILRFNRPFLVVIFSTSTQSVLFLGKVVDPTKP | 2000 | 1300 | 1.5 | –
rKAL-312/313D (natural protein, human, UniProt P29622 45-427, looked up, kallistatin (SERPINA4), human, residues 45-427; double mutant of K312 and K313 to Asp; also called rKAL-K312/313D; source: E. coli BL21 (DE3), purified (HisTrap FF crude, SENP2 digestion, HiTrap SP)) GSPSLKIAPANADFAFRFYYLIASETPGKNIFFSPLSISAAYAMLSLGACSHSRSQILEGLGFNLTELSESDVHRGFQHLLHTLNLPGHGLETRVGSALFLSHNLKFLAKFLNDTMAVYEAKLFHTNFYDTVGTIQLINDHVKKETRGKIVDLVSELKKDVLMVLVNYIYFKALWEKPFISSRTTPKDFYVDENTTVRVPMMLQDQEHHWYLHDRYLPCSVLRMDYKGDATVFFILPNQGKMREIEEVLTPEMLMRWNNLLRKRNFYDDLELHLPKFSISGSYVLDQILPRLGFTDLFSKWADLSGITKQQKLEASKSFHKATLDVDEAGTEAAAATSFAIKFFSAQTNRHILRFNRPFLVVIFSTSTQSVLFLGKVVDPTKP | 1500 | 1000 | 1.5 | –
rKAL-R259D (natural protein, human, UniProt P29622 45-427, looked up, kallistatin (SERPINA4), human, residues 45-427; source: E. coli BL21 (DE3), purified (HisTrap FF crude, SENP2 digestion, HiTrap SP)) GSPSLKIAPANADFAFRFYYLIASETPGKNIFFSPLSISAAYAMLSLGACSHSRSQILEGLGFNLTELSESDVHRGFQHLLHTLNLPGHGLETRVGSALFLSHNLKFLAKFLNDTMAVYEAKLFHTNFYDTVGTIQLINDHVKKETRGKIVDLVSELKKDVLMVLVNYIYFKALWEKPFISSRTTPKDFYVDENTTVRVPMMLQDQEHHWYLHDDYLPCSVLRMDYKGDATVFFILPNQGKMREIEEVLTPEMLMRWNNLLRKRNFYKKLELHLPKFSISGSYVLDQILPRLGFTDLFSKWADLSGITKQQKLEASKSFHKATLDVDEAGTEAAAATSFAIKFFSAQTNRHILRFNRPFLVVIFSTSTQSVLFLGKVVDPTKP | 3500 | 2200 | 1.6 | –
rKAL-R300D (natural protein, human, UniProt P29622 45-427, looked up, kallistatin (SERPINA4), human, residues 45-427; source: E. coli BL21 (DE3), purified (HisTrap FF crude, SENP2 digestion, HiTrap SP)) GSPSLKIAPANADFAFRFYYLIASETPGKNIFFSPLSISAAYAMLSLGACSHSRSQILEGLGFNLTELSESDVHRGFQHLLHTLNLPGHGLETRVGSALFLSHNLKFLAKFLNDTMAVYEAKLFHTNFYDTVGTIQLINDHVKKETRGKIVDLVSELKKDVLMVLVNYIYFKALWEKPFISSRTTPKDFYVDENTTVRVPMMLQDQEHHWYLHDRYLPCSVLRMDYKGDATVFFILPNQGKMREIEEVLTPEMLMDWNNLLRKRNFYKKLELHLPKFSISGSYVLDQILPRLGFTDLFSKWADLSGITKQQKLEASKSFHKATLDVDEAGTEAAAATSFAIKFFSAQTNRHILRFNRPFLVVIFSTSTQSVLFLGKVVDPTKP | 2900 | 1600 | 1.8 | –
rKAL-R394D (natural protein, human, UniProt P29622 45-427, looked up, kallistatin (SERPINA4), human, residues 45-427; source: E. coli BL21 (DE3), purified (HisTrap FF crude, SENP2 digestion, HiTrap SP)) GSPSLKIAPANADFAFRFYYLIASETPGKNIFFSPLSISAAYAMLSLGACSHSRSQILEGLGFNLTELSESDVHRGFQHLLHTLNLPGHGLETRVGSALFLSHNLKFLAKFLNDTMAVYEAKLFHTNFYDTVGTIQLINDHVKKETRGKIVDLVSELKKDVLMVLVNYIYFKALWEKPFISSRTTPKDFYVDENTTVRVPMMLQDQEHHWYLHDRYLPCSVLRMDYKGDATVFFILPNQGKMREIEEVLTPEMLMRWNNLLRKRNFYKKLELHLPKFSISGSYVLDQILPRLGFTDLFSKWADLSGITKQQKLEASKSFHKATLDVDEAGTEAAAATSFAIKFFSAQTNDHILRFNRPFLVVIFSTSTQSVLFLGKVVDPTKP | 1800 | 1000 | 1.8 | –
